Consider 2 substances from PMC5404920.

In this test the target is Mg-ATP actin (15% Alexa 488-labeled), assembled into actin filaments (F-actin) (not stated (chicken or rabbit skeletal muscle)) (UniProt P68135). Nature of the test: TIRF microscopy; two-color TIRFM of 1.5 μM Mg-ATP actin (15% Alexa 488) assembling with Cy5-labeled Cdc8 at 1 μM and above; 10 mM imidazole pH 7.0, 50 mM KCl, 1 mM MgCl2, 1 mM EGTA, 0.5% methylcellulose, room temperature.

Consider “tropomyosin AlaSer-Cdc8 I76C, Cy5-labeled (natural protein)”, for which the kon per unit filament length of the first observed Cdc8 binding (random-binding model fitted to the TIRFM data) stood at 4e-06 s⁻¹ nm⁻¹; the percent of F-actin coated at 2 μM Cdc8 and higher turned out to be 98%; the percent of actin filament sites coated at 1.25 μM Cdc8 was 40%; the percent of actin filaments associated with tropomyosin amounted to 100%. In addition, the percent of total actin filament coverage at 1 μM Cdc8 was 2%, the spreading rate of Cdc8 toward the barbed end (Cdc8 molecules sec^-1 μM^-1) came out at 3.2 and the spreading rate of Cdc8 toward the pointed end (Cdc8 molecules sec^-1 μM^-1) was determined as 2.4.
In turn, “tropomyosin AlaSer-Cdc8 D142C, Cy5-labeled (natural protein)” displayed a percent of actin filaments associated with tropomyosin of 100%.
